Results: US20230235058A1 (OXFORD UNIVERSITY INNOVATION, published 2023)
Changes are numbered by the printed parent chain. In names and notes the source's numbering stands. Blank lines part the entries; values can stand above or below the binder they belong to.

How the values were obtained:
[1] = molecular target: T1, full length human BTLA expressed on cells (human, UniProt Q7Z6A9 31-289); experiment: cell-based or functional assay
[2] = molecular target: T1, full length human BTLA expressed on …; experiment: cell-based or functional assay; remark: listed apart in the source
[3] = molecular target: chimeric BTLA of humanised-BTLA mice (human extracellular region, murine transmembrane and signaling … (human; mouse, UniProt Q7TSA3 184-306, limits assumed); experiment: cell-based or functional assay
[4] = molecular target: T2, monomeric soluble human BTLA extracellular domain (BTLA K31-R151) (human, UniProt Q7Z6A9 31-151); experiment: SPR 37C, mAb captured, BTLA ECD analyte;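 further: Anti-BTLA mouse antibodies captured on a sensor chip via polyclonal anti-mouse IgG, isotype control antibody in reference channel, rates fitted after reference and blank subtraction to derive Kd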
T2 construct: also called hBTLA; monomeric BTLA
Procedure: (§1) Mouse antibody capture kit (GE Healthcare) was used to coat a Series S CMS Sensor Chip (GE Healthcare) with polyclonal anti-mouse IgG. Anti-BTLA antibody was then captured onto the biosensor surface and a negative control antibody (clone Mopc21; Biolegend) captured in the reference channel. […] Association and dissociation rates were fitted using BiaEvaluation Software (GE Healthcare) after reference and blank subtractions, and dissociation constants were calculated (FIG. 1b).

[5] = molecular target: T3, soluble cynomolgus macaque BTLA extracellular domain (BTLA K31-R151) (cynomolgus macaque); experiment: SPR 37C, mAb captured, BTLA ECD analyte;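 further: Anti-BTLA mouse antibodies captured on a sensor chip via polyclonal anti-mouse IgG, isotype control antibody in reference channel, rates fitted after reference and blank subtraction to derive Kd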
T3 construct: also called cynomolgus BTLA; cyno BTLA
T3 chain: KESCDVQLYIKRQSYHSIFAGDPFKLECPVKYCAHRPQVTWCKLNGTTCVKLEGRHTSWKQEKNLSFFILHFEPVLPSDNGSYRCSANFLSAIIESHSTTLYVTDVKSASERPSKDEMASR
Procedure: as §1

human FcγR1A = molecular target: T4, human FcγR1A (human, UniProt P12314 16-288, biotinylated); experiment: SPR 37C, kinetic
T4 construct: bought; also called CD64A
Procedure: For the high affinity FcR interactions (FcγR1A, and also FcRn assessed at pH6.0) the binding was assessed in a kinetic analysis with antibody as analyte. […] Reference flow cell 1 was left empty in all channels. Purified antibody was then injected at a single concentration and on/off rates calculated by curve fitting on BiaEvaluation software.

human FcγR2A 131R = molecular target: T5, human FcγR2A 131R (human, UniProt P12318 34-217); experiment: SPR 37C, steady state;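 further: fc variants captured on chip-bound human BTLA ectodomain, recombinant FcγR ectodomains injected as analyte at varied concentrations, double-referenced equilibrium binding fitted to Langmuir model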
T5 construct: extracellular domain
T5 sequence (looked up): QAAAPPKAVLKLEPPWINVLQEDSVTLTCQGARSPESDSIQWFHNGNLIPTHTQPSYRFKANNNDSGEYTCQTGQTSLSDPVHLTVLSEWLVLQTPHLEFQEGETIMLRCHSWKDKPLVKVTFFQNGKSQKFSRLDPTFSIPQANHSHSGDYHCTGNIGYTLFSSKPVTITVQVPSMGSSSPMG
Procedure: (§2) For the low affinity FcγRs (FcγR2A, FcγR2B, FcγR3A and FcγR3B) the interactions were assessed by surface plasmon resonance with the recombinantly expressed FcRs (extracellular domains only) as analyte. Briefly, recombinant human BTLA extracellular domain (BTLA^K31-R151) was covalently immobilised to both flow cells of all channels of a CMS Series S sensor chip using the GE Healthcare Amine coupling kit. The 2.8.6 Fc variant to be assessed was then captured (approx. 500-1000 response units) in flow cell 2 of each channel. Steady state affinity analysis was then performed by injecting varying concentrations of FcR in multiple cycles and measuring equilibrium binding. Double referencing was used (subtracting the signal in the reference Fc1 and also subtracting the signal from a blank zero concentration injection). KDs were calculated from the Langmuir curves (plotting equilibrium binding against analyte concentration to determine the concentration required for half maximal binding).

human FcγR2A 131H = molecular target: T6, human FcγR2A 131H (human, UniProt P12318 34-217); experiment: SPR 37C, steady state;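 further: fc variants captured on chip-bound human BTLA ectodomain, recombinant FcγR ectodomains injected as analyte at varied concentrations, double-referenced equilibrium binding fitted to Langmuir model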
T6 construct: extracellular domain
T6 sequence (looked up): T5 sequence (looked up) with R134H
Procedure: as §2

human FcγR2B = molecular target: T7, human FcγR2B (human, UniProt P31994 43-217); experiment: SPR 37C, steady state;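 further: fc variants captured on chip-bound human BTLA ectodomain, recombinant FcγR ectodomains injected as analyte at varied concentrations, double-referenced equilibrium binding fitted to Langmuir model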
T7 construct: extracellular domain; also called hFcγR2B; CD32B
T7 sequence (looked up): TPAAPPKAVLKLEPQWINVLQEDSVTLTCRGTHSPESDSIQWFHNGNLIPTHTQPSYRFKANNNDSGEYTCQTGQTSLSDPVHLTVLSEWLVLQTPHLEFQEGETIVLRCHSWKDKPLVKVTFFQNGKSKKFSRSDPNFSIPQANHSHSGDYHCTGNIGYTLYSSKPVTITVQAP
Procedure: as §2

human FcγR3A 158F = molecular target: T8, human FcγR3A 158F (human, UniProt P08637 17-208); experiment: SPR 37C, steady state;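 further: fc variants captured on chip-bound human BTLA ectodomain, recombinant FcγR ectodomains injected as analyte at varied concentrations, double-referenced equilibrium binding fitted to Langmuir model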
T8 construct: extracellular domain
Procedure: as §2

human FcγR3A 158V = molecular target: T9, human FcγR3A 158V (human, UniProt P08637 17-208); experiment: SPR 37C, steady state
T9 construct: extracellular domain
Procedure: as §2

human FcγR3B = molecular target: T10, human FcγR3B (human, UniProt O75015 17-200, limits assumed); experiment: SPR 37C, steady state
T10 construct: extracellular domain; also called CD16B
Procedure: as §2

human FcRn = molecular target: T11, human FcRn (human, UniProt P55899 24-297; P61769 21-119, limits assumed, biotinylated); experiment: SPR, pH6.0
T11 construct: bought; also called FcRn pH6
Procedure: For the high affinity FcR interactions (FcγR1A, and also FcRn assessed at pH6.0) the binding was assessed in a kinetic analysis with antibody as analyte. […] Reference flow cell 1 was left empty in all channels. Purified antibody was then injected at a single concentration and on/off rates calculated by curve fitting on BiaEvaluation software. […] IgG Fc has two binding sites for FcRn so this assessment performed with FcRn immobilised at high density provides an avidity estimate for the interaction rather than a true KD.
Wherever AntiCD3/CD28 (CD4 T cell proliferation) repeat 1 is given: test concentration or dose not given here.
Wherever AntiCD3/CD28 (CD4 T cell proliferation) repeat 2 is given: test concentration or dose not given here.
Wherever AntiCD3/CD28 (CD69+ CD4 T cells) repeat 1 is given: test concentration or dose not given here.
Wherever AntiCD3/CD28 (CD69+ CD4 T cells) repeat 2 is given: test concentration or dose not given here.
Wherever MLR (CD4 T cell proliferation) repeat 1 is given: test concentration or dose not given here.
Wherever MLR (CD4 T cell proliferation) repeat 2 is given: test concentration or dose not given here.
Wherever T cell reporter (NFκB signaling) is given: test concentration or dose not given here.

T8 sequence (P08637 17-208): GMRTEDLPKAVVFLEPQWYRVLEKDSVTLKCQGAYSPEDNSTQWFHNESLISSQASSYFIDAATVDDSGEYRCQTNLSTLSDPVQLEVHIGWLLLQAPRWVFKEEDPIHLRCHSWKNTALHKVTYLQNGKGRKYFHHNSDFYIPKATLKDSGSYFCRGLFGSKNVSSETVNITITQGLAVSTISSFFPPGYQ
Sequence of chimeric BTLA of humanised-BTLA mice (human extracellular region, murine transmembrane and signaling … (Q7TSA3 other isoform, or with tags, fused parts or gaps mutant limits assumed): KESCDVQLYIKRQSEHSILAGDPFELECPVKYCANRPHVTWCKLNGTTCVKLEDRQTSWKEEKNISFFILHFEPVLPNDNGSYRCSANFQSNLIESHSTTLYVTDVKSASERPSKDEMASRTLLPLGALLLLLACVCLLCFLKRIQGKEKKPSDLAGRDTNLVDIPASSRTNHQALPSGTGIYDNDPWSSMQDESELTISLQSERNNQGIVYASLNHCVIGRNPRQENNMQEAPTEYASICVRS
T9 sequence (P08637 17-208 F176V): as the sequence (P08637 17-208) above, with F160V counted along it
T10 sequence (O75015 17-200 limits assumed): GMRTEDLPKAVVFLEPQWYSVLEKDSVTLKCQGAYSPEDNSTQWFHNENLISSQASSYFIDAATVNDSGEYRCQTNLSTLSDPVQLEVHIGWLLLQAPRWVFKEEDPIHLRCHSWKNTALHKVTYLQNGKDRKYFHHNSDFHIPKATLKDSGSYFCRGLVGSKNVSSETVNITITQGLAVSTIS
T4 sequence (P12314 16-288): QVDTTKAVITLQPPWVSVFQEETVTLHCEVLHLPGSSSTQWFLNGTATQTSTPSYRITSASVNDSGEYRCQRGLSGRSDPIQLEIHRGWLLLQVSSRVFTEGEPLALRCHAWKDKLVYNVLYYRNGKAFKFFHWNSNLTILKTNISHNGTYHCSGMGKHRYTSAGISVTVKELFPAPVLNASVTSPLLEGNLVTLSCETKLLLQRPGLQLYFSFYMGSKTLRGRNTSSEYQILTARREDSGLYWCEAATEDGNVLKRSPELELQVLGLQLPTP

inhibition of NFkB signal, IC50 [1]: 0.0096 µM
maximal inhibition of NFkB signal [1]: 27%
B1: hHVEM-mFc fusion protein (human HVEM extracellular domain fused to mouse IgG1 Fc) (Fc fusion)
chain: LPSCKEDEYPVGSECCPKCSPGYRVKEACGELTGTVCEPCPPGTYIAHLNGLSKCLQCQMCDPAMGLRASRNCSRTENAVCGCSPGHFCIVQDGDHCAACRAYATSSPGQRVQKGGTESQDTLCQNCPPGTFSPNGTLEECQHQTKCSWLVTKAGAGTSSSHLVPRGSGSKPSISTVPEVSSVFIFPPKPKDVLTITLTPKVTCVVVDISKDDPEVQFSWFVDDVEVHTAQTQPREEQFNSTFRSVSELPIMHQDWLNGKEFKCRVNSAAFPAPIEKTISKTKGRPKAPQVYTIPPPKEQMAKDKVSLTCMITDFFPEDITVEWQWNGQPAENYKNTQPIMDTDGSYFVYSKLNVQKSNWEAGNTFTCSVLHEGLHNHHTEKSLSHSPGKHHHHHH

T cell reporter (NFκB signaling) [2]: 24 % inhibition
AntiCD3/CD28 (CD4 T cell proliferation) repeat 1 [3]: 10 % inhibition
AntiCD3/CD28 (CD4 T cell proliferation) repeat 2 [3]: 13 % inhibition
AntiCD3/CD28 (CD69+ CD4 T cells) repeat 1 [3]: 24 % inhibition
AntiCD3/CD28 (CD69+ CD4 T cells) repeat 2 [3]: 22 % inhibition
MLR (CD4 T cell proliferation) repeat 1 [3]: 9 % inhibition
MLR (CD4 T cell proliferation) repeat 2 [3]: 8 % inhibition
Kd [4]: 0.437 µM
koff [4]: 0.0838 s⁻¹
kon [4]: 192000 M⁻¹ s⁻¹
Kd [5]: 0.654 µM
B2: 27G9 (antibody, IgG1, V domains shown)
VH: EVQLQQSVAELVRPGASVKLSCTASGFNIKNTYMHWVKQRPEQGLEWIGRIDPANGNTKYAPKFQGKATITADTSSNTAYLQLSSLTSEDTAIYYCALTYYGSSQYYFDYWGQGTTLTVSS
VL: not shown
notes: mIgG1

T cell reporter (NFκB signaling) [2]: 20 % inhibition
AntiCD3/CD28 (CD4 T cell proliferation) repeat 1 [3]: 4 % inhibition
AntiCD3/CD28 (CD4 T cell proliferation) repeat 2 [3]: 0 % inhibition
AntiCD3/CD28 (CD69+ CD4 T cells) repeat 1 [3]: 19 % inhibition
AntiCD3/CD28 (CD69+ CD4 T cells) repeat 2 [3]: 17 % inhibition
MLR (CD4 T cell proliferation) repeat 1 [3]: 9 % inhibition
MLR (CD4 T cell proliferation) repeat 2 [3]: -5 % inhibition
Kd [4]: 2.2 µM
koff [4]: 2.02 s⁻¹
kon [4]: 921000 M⁻¹ s⁻¹
Kd [5]: 0.81 µM
B3: 26F3 (antibody, IgG1, V domains shown)
VH: B2 VH with H35Y, T99L, Q105Y, Y106D
VL: not shown
notes: mIgG1

binding result (human FcγR1A): no binding
Kd (human FcγR2A 131R): 54.4 µM
binding result (human FcγR2A 131H): no binding
Kd (human FcγR2B): 104 µM
binding result (human FcγR3A 158F): no binding
binding result (human FcγR3A 158V): no binding
binding result (human FcγR3B): no binding
B4: humanised 2.8.6 hIgG1 D265A G236D S267E A330R (antibody)
heavy: QVTLKESGPALVKPTQTLTLTCTVSGFSLTTYGVHWIRQPPGKALEWLGVMWPGGRTSYNPSLKSRLTITKDNSKSQVVLTMTNMDPVDTATYYCVRGDYEYDYYAMDYWGQGTLVTVSSASTKGPSVFPLAPSSKSTSGGTAALGCLVKDYFPEPVTVSWNSGALTSGVHTFPAVLQSSGLYSLSSVVTVPSSSLGTQTYICNVNHKPSNTKVDKKVEPKSCDKTHTCPPCPAPELLDGPSVFLFPPKPKDTLMISRTPEVTCVVVAVEHEDPEVKFNWYVDGVEVHNAKTKPREEQYNSTYRVVSVLTVLHQDWLNGKEYKCKVSNKALPRPIEKTISKAKGQPREPQVYTLPPSREEMTKNQVSLTCLVKGFYPSDIAVEWESNGQPENNYKTTPPVLDSDGSFFLYSKLTVDKSRWQQGNVFSCSVMHEALHNHYTQKSLSLSPGK
light: EIVLTQSPATLSLSPGERATLSCRASSSVSYMHWYQQKPGQAPRPLIYATSNRATGIPARFSGSGSGTDYTLTISSLEPEDFAVYYCHQWSSNPYTFGQGTKLEIKRTVAAPSVFIFPPSDEQLKSGTASVVCLLNNFYPREAKVQWKVDNALQSGNSQESVTEQDSKDSTYSLSSTLTLSKADYEKHKVYACEVTHQGLSSPVTKSFNRGEC
notes: Fc variant with the variable domains of humanised 2.8.6; copies: 2 + 2

avidity (FcRn pH6) (human FcRn): 14.8 nM
Kd (human FcγR2A 131R): 9.56 µM
Kd (human FcγR2A 131H): 4.86 µM
Kd (human FcγR2B): 82.5 µM
Kd (human FcγR3A 158F): 722 µM
Kd (human FcγR3A 158V): 494 µM
Kd (human FcγR3B): 2820 µM
B5: humanised 2.8.6 hIgG1 delta ab (antibody)
chain 1: QVTLKESGPALVKPTQTLTLTCTVSGFSLTTYGVHWIRQPPGKALEWLGVMWPGGRTSYNPSLKSRLTITKDNSKSQVVLTMTNMDPVDTATYYCVRGDYEYDYYAMDYWGQGTLVTVSSASTKGPSVFPLAPSSKSTSGGTAALGCLVKDYFPEPVTVSWNSGALTSGVHTFPAVLQSSGLYSLSSVVTVPSSSLGTQTYICNVNHKPSNTKVDKKVEPKSCDKTHTCPPCPAPPVAGPSVFLFPPKPKDTLMISRTPEVTCVVVDVSHEDPEVKFNWYVDGVEVHNAKTKPREEQYNSTYRVVSVLTVLHQDWLNGKEYKCKVSNKGLPSSIEKTISKAKGQPREPQVYTLPPSRDELTKNQVSLTCLVKGFYPSDIAVEWESNGQPENNYKTTPPVLDSDGSFFLYSKLTVDKSRWQQGNVFSCSVMHEALHNHYTQKSLSLSP
chain 2: B4 light

avidity (FcRn pH6) (human FcRn): 11.9 nM
Kd (human FcγR1A): 2.85 µM
Kd (human FcγR2A 131R): 79.3 µM
Kd (human FcγR2A 131H): 82.2 µM
Kd (human FcγR2B): 131 µM
Kd (human FcγR3A 158F): 344 µM
Kd (human FcγR3A 158V): 96.4 µM
B6: humanised 2.8.6 hIgG1 delta ac (antibody)
chain 1: QVTLKESGPALVKPTQTLTLTCTVSGFSLTTYGVHWIRQPPGKALEWLGVMWPGGRTSYNPSLKSRLTITKDNSKSQVVLTMTNMDPVDTATYYCVRGDYEYDYYAMDYWGQGTLVTVSSASTKGPSVFPLAPSSKSTSGGTAALGCLVKDYFPEPVTVSWNSGALTSGVHTFPAVLQSSGLYSLSSVVTVPSSSLGTQTYICNVNHKPSNTKVDKKVEPKSCDKTHTCPPCPAPPVAGGPSVFLFPPKPKDTLMISRTPEVTCVVVDVSHEDPEVKFNWYVDGVEVHNAKTKPREEQYNSTYRVVSVLTVLHQDWLNGKEYKCKVSNKGLPSSIEKTISKAKGQPREPQVYTLPPSRDELTKNQVSLTCLVKGFYPSDIAVEWESNGQPENNYKTTPPVLDSDGSFFLYSKLTVDKSRWQQGNVFSCSVMHEALHNHYTQKSLSLSP
chain 2: B4 light

Kd (human FcγR2A 131R): 22 µM
Kd (human FcγR2A 131H): 113 µM
Kd (human FcγR2B): 80.1 µM
binding result (human FcγR3A 158F): no binding
binding result (human FcγR3A 158V): no binding
binding result (human FcγR3B): no binding
B7: humanised 2.8.6 hIgG1 D265A S267E A330R (antibody)
heavy: B4 heavy with D239G
light: B4 light
notes: as for B4

T cell reporter (NFκB signaling) [2]: 26 % inhibition
AntiCD3/CD28 (CD4 T cell proliferation) repeat 1 [3]: 19 % inhibition
AntiCD3/CD28 (CD4 T cell proliferation) repeat 2 [3]: 21 % inhibition
AntiCD3/CD28 (CD69+ CD4 T cells) repeat 1 [3]: 53 % inhibition
AntiCD3/CD28 (CD69+ CD4 T cells) repeat 2 [3]: 61 % inhibition
MLR (CD4 T cell proliferation) repeat 1 [3]: 31 % inhibition
MLR (CD4 T cell proliferation) repeat 2 [3]: 35 % inhibition
Kd [4]: 0.0017 µM
koff [4]: 0.00107 s⁻¹
kon [4]: 630000 M⁻¹ s⁻¹
Kd [5]: 0.00971 µM
B8: 6.2 (antibody, IgG1, V domains shown)
VH: EVKLVESGGGLVKPGGSLKLSCAASGFTLSSYGMSWVRQIPEKRLEWVASIRSDGNTYYPDSVKGRFIISRDNARNILYLQMSSLRSEDTAMYYCTRGGYYGSSPYYWGQGTTLTVSS
VL: DIVMSQSPSSLPVSVGEKISMTCKSSQSLLYSSNQKNYLAWYQQKPGQSPKLLIYWASTRDSGVPDRFIGSGSGTDFTLTINSVKAEDLAVYYCQQYYNYLTFGAGTKLELK
notes: mIgG1; also called clone 6.2; parent clone 6.2
